In PMC8565349 (Nucleic Acids Research, 2021):

T1: purified S. aureus β-clamp (ITC sample) (S. aureus, UniProt P0A024 1-377)
T1 sequence: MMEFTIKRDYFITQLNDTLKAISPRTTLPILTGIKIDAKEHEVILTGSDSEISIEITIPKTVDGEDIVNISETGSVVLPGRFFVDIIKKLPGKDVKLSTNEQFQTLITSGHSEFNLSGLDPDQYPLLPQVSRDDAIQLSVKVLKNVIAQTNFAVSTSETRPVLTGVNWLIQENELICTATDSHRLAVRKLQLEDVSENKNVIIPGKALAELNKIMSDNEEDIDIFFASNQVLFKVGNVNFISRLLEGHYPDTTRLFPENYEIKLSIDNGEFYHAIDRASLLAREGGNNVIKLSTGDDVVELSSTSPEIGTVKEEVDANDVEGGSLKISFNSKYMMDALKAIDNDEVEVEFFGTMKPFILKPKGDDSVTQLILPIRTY


Columns and labels:
[1] = molecular target: T1, purified S. aureus β-clamp (ITC sample); assay: ITC
[2] = molecular target: the molecule itself; assay: SEC-MALS
[3] = molecular target: the molecule itself; assay: cryo-EM structure
[4] = molecular target: the molecule itself; assay: SEC

| Binder | Kd [1] [nM] | stoichiometry N [1] | stoichiometry N [2] | stoichiometry N [3] | stoichiometry N [4] |
| --- | --- | --- | --- | --- | --- |
| polyhistidine-tagged Gp168 of bacteriophage Twort (natural protein) MLFFKEKFYNELSYYRGGHKDLESMFELALEYIEKLEEEDEQQVTDYENAMEEELRDAVDVIESQLEIIKDIVR | 95 ± 16.7 | 0.16 ± 0.003 | 6 | 2 | – |
| polyhistidine-tagged Gp168 Y14A (natural protein, bacteriophage Twort) MLFFKEKFYNELSAYRGGHKDLESMFELALEYIEKLEEEDEQQVTDYENAMEEELRDAVDVIESQLEIIKDIVR | – | – | – | – | 6 |
